Reference: the nanobody polyreactivity screen of Harvey et al. (2022)

Assay: yeast display, Sf9 membrane polyspecificity reagent, FACS + sequencing; frameworks hold sequencing errors
In short: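 Polyreactivity labels are assigned by the sorting gate from which each nanobody was recovered. The gates were low and high (top ~1%), set on anti-HA fluorescence for expression and streptavidin fluorescence for reagent binding. Before sorting, galactose-induced (36–48 hours) yeast display cells were stained for 1 hour at 4 °C with 10% biotinylated, detergent-solubilized Sf9 membrane reagent.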

Sequence | polyreactivity (PSR sort gate)
QVQIVESGGGLVQAGGSLRLSFAASGRTFGVYAMGWYRQAPGKERELVAAISATGGSTYYADSVKGRFTISRDNSKNTVYLQMNSLKPEDTAVYYCARGGTTLYWGLGTQVTVSS | high polyreactivity
QVQLVESGGGLVQAGGSLRLSCADSGSIFGVNVMGWYRQAPGKDRELVAAITSIGGRTYYADSVKGRFTISRDNAKNTVYLQMNSLKPEDTAVYYCNADYTGAEYDYWGQGTQVTVSS | low polyreactivity
QVQLVESGGGLVQAGGSLRLTCAASGSIFVSYARGWYREAPGKERELVAAITSAGTPYYADSVKGRFTISRDNAKNTVYLQMNSLKPDDTAVYYCNTDASLKRTRVSPETEYGYWGQGTQVTVSS | low polyreactivity
QVQLVESGGGLVQAGGSLRLSCAASGSTFYRYAMGCYRQAPGKERELVAAISSRGGSTYYADSVKGRFTISRDNAKNTVYLQMNSLKPEDTAVYYCAAQVYGTAGYYYWGQGTQVTVSS | high polyreactivity
QVQLVESGGGLVQAGGSLRLSCAASGRIFAANTMGWYRQAPGKEREFVAVIRGRGGSTYYADSVKGRFTISRDNAKNTVYLQMNSLKPEDTAVYYCAAYYKPYRERLYGYWGQGTQVTVSS | high polyreactivity
QVQLVESGGGLVQAGGSLRLSCADSGSIFWLYAMGWYRQAPGKERELVAAIDSGDSTKYADSVKGRFTISRDNAKNTVYLQMNSLKPEDTAVYYCNASRRYHVRAPYDYWGQGTQVTVSS | low polyreactivity
QVQLVESGGGLVQAGGSLRLSCAASGFIFRYYAMGWYRQAPGKERVLVARITPRGGRTYYADSVKGRFTISRDNAKNTVYLQMNSLKPEDTAVYYCAAVYPVLHEFGYWGQGTQVTVSS | high polyreactivity
QVQLVETGGGLVQAGGSLRLSCAASGITSRPYVMGWYRQAPGKERELVAAISLTGGRTYYADSVKGRFTISRDNAKNTVYLQMNSPKPEDTAVYYCAAARSPYKYSYWGQGTQVTVSS | high polyreactivity
QVQLVESGGGLVQAGGSLRLSCAASGSTFVANGMGWYRQAPGKERELVAVISRNGGTTYYADSVKGRFTISRDNAKNTVYLQMNSLKPEDTAVYYCNAKLPVFHYFWMDYWGQGTQVTVSS | high polyreactivity
QGQLVESGGGEVQAGGSLRLSCAASGFTFGSNAMGWYRPAPGKERELVAAISSTGSTYYADSVKGRFTLSRDNAKNTVYVQMNSLKPEDPAVYYCNADSDTPRYDYWGQGTQVTVSS | low polyreactivity
QVQLVESGGGLVQAGGSLRLSCAASGITFYYYAMGWYRQAPGKERELVAAISTRDGNTYYADSVKGRFTISRDNAKNTVYLQMNSLKPEDTAVYYCAADYFRYYPYDYWGQGTQVTVSS | low polyreactivity
QVQLVESGGGLVQAGGSLRLSCPASGSIYASNTMGWYRQAPGKERELVSGITKIGSSTYYADSVKRRFTISRDNAKNTVYLQMNSLKPEDTAVYYCNAYGPTIYSSRYDYWGQGTQVTVSS | low polyreactivity
QVQLVDSGGGLVQAGGSLRLSCAASGLTFRRYAMAWYRQAPGKERELVAGISRGGSTYYADSVKGRFTISRDNAKNTVYLQMTSLKPEDTAVYYCAAYNRGTYPVQPVPYDMDYWGQGTQVTVSS | low polyreactivity
QVQLVESGGGLVQAGGSLRLSCDASGSTFDQYVMGWYRQAPWKERELVAAISVSGGRTYYADSVKGRFTISRDNAKNTVYLQMKSLKPDDTAVYYCNAPKRYSSIGYDYWGQGTQVTVSS | high polyreactivity
QVQLVESGGGLVQAGGSLRLSCAASGSIFYYNAMGWSRQAPGKERELVAGIRRSGDSTYYADSVKGRFTISRDNAKNTVYLQMNSLKPEDTAVYYCAAYLYLEYYYWGQGTQVTVSS | low polyreactivity
QVQLVESGGGLVQAGGSLRLSCAASGSIFPRYAMGWYRQAPGKERELVAAITGSGSSTYYADSVKGRFTISRDNAKNTVYLQMNSLKPEDTAVYYCADRFIWGYWGVGYYYWGQGTQVTVSS | low polyreactivity

Sequence | polyreactivity (PSR sort gate)
QVQLVESGGGLVQAGGSLRLSCAASGSIFDYYAMGWYRQAPGKERELVAAISESSDSTYYADSVKGRFTISRDNAKNTVYLQMNSLKPEDTAVYYCAAYRGTLLTAYDYWGQGTQVTVSS | low polyreactivity
QVQLVESGGCLVQAGGSLRLSCAASGRTFFNYGMGWYRQAPGKEREFVARISFSGGSTYYADSVKGRFTISRDNAKNTVFLQMNSLIPEDTAVYYCNARVFPVAYRYGYWGQGTQVTVSS | high polyreactivity
QVQLVESVGGLVQAGGSLRLSCAASGRTFYQYALGWYRQAPGKERELVAVINGGGSTNYADSVKGRFTISRDNAKNTVYLQMNSLKPEDTAVYYCNADGRRGRYDYWGQGTQVTVSS | low polyreactivity
QVQLEESGRGLVQAGGSLRISCAASGRTYTYYALGWYRQAPGKERELVAAISQSGGSTYYADSVKGRFTISRDNAKNTVYLQMNSLKPEDTAVYYCASVWRTRWAPGYYWGQGTQVTVSS | high polyreactivity
QVQLVESGGGLVQAAGSLRLSCAASGRTSVRYAMGWNRQAHGKERELVAAISWSGGSTYYADSVKGRFTISRDNAKNTVYLQMNSLKPEDTAVYYCNAQHALGYYYWGQGTQVTVSS | low polyreactivity
QVQLVESGGGLDQAGGSLRLSCAASGFIFAYNTMGWYRQAPGKERELVATIRWSGGRTYYADSVKGRFTISRDNAKNSVYLQMNSLKPEDTAVYYCAKRAFSYVGGQQDRKENYYYWGQGTQVTVSS | high polyreactivity
QDQLVESGGGLVQARGSLRLSCAASGYIFPFYAMGWYRQAPGKESELVASISSSSGRTNYADSVKGRFTISRDNAMNTVYLQMNSLKPEDTAVYYCSAAYLRYVSTQYHYDYWGQGTQVTVSS | low polyreactivity
QVQLVESGGGLVQAGGSLRLSCAASGRTFAQYAMGWYRQAPGKERELVAAISRSGGSTFYADSVKGRFTISRDNAKNTVYLQMNSLKPEDTAVYYCAAYNRQASLDYWGQGTQVTVSS | high polyreactivity
QVQLVESGGGLVQAGGSLRLSCAASGSTFWVYAMGWYRQAPGKERELVASITFSGSSTYYADSVKGRFTISRDNAKNTVYLQMNSLKPEDTAVYYCAAGEGGDRSRGYLSQYGYWGQGTQVTVSS | low polyreactivity
QVQLVESGGGLVQAGGSLRLSCAASGSIFYYYVMGWYRQAPGKERELVAAITYSGGRTYYADSVKGRFTISRDNAKYTVYLQMNSLKPEDTAVYYCNVVIYYFNSRSVFYDYDYWGQGTQVTVSS | high polyreactivity
QVQLVESGGGLVQAGGSLRLSCAASGSIFYQYAMGWYRQAPGKERELVAAISRSGGSTYYADSVKGRFTISRDNPKNTVYLQMNSLKPEDTAGYYCAARAVRAAYDYWGQGSQVTVSS | low polyreactivity
QVQHVESGGGLVQAGGSLRLSCAASGRTSFNYTQGWYRQAPGKERELVAAITSGGDTYYADSVKGRFTISRDNAKNTVYLPMNSLKPEDTAVYYCAVDDLGSEYDYWGQGTQVTVSS | low polyreactivity
QVQLVESGGGLVQAGGSLRLSCAASGLIIDGYAMGWYRQAPGKERELVATITVSGTSTYYADSVKGRFTISRDNAKNTVYLQMNSLKPEDTAVYYCATDRNYGYYFVEYDHDYWGQGTQVTVSS | low polyreactivity
QVQLVESGGGLVQAGGSLRLSCAASGRTFEQYAMVWYRQAPGKERELVAAISGSGGSTFYADSVKGRFTISRDNAKNTVYLQMNSLKPEDTAVYYCNAPGDGYLYDHTYDYGGQGTQVTVSS | low polyreactivity
QVQLVESGGGLVQAGGSLRISCAASGRIFANYAMGWYRQAPGKEMELVAAITTNGGGTYYADSVKVRFTISRDNAKNTVYLQMKSLIPEDTAVYYCIAVKQRSSIFDYWGQGTQLTVSS | low polyreactivity
QVQIVESGGGFVQAGGSLRLSCAASGRIYGNTMGWYRQAHGKERELVAAITRSGVSTYYADSVKGRFTISRDNAKNTVYLQMNSLKPDDTAVYYCAAREWSGPKINPPYRYNSWGQGTQETVSS | high polyreactivity
